According to patent publication US20130189714A1, “METHOD FOR THE DETECTION AND/OR QUANTIFICATION OF THE INTERACTION OF PLATELETS WITH INTERACTION PARTNERS” (SANOFI, priority 2010, published 2013):

Columns and labels:
[1] = target: collagen receptor on live human platelets (human); assay: platelet adhesion to rat tail collagen 1 coated wells vs BSA, 6 plates under automated conditions, Acumen cytometry
[2] = target: platelet glycoprotein GpIb alpha (CD42b antigen), on live human platelets (human) (UniProt P07359); assay: platelet adhesion to vWF-A1 coated wells, AK2 at 2 ug/ml, Acumen cytometry
Chain of platelet glycoprotein GpIb alpha (CD42b antigen), on live human platelets (human) (P07359 17-652): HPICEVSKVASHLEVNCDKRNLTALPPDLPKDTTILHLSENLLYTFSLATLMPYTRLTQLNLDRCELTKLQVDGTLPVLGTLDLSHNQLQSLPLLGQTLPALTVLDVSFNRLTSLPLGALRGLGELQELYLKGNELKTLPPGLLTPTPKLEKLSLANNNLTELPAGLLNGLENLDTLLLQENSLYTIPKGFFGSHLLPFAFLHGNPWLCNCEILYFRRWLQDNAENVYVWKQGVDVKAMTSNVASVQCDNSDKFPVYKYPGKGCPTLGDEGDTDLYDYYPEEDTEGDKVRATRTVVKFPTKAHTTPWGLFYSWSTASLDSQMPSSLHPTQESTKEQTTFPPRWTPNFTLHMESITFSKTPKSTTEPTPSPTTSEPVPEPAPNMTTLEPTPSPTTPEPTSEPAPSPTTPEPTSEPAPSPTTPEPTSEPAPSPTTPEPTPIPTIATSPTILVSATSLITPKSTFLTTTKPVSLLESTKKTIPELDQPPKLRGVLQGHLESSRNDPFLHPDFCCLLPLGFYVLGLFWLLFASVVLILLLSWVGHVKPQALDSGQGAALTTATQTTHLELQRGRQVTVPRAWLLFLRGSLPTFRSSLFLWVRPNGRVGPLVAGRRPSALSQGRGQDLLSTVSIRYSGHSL

[3] = target: platelet glycoprotein GpIb alpha (CD42b antigen), on live human platelets (human) (UniProt P07359); assay: platelet adhesion to coated wells, optimized wash program, Acumen cytometry; reference BSA-coated wells
[4] = target: platelet glycoprotein GpIb alpha (CD42b antigen), on live human platelets (human) (UniProt P07359); assay: platelet adhesion to vWF-A1 coated wells vs BSA-coated wells, optimized washer settings, Acumen cytometry
[5] = target: platelet glycoprotein GpIb alpha (CD42b antigen), on live human platelets (human) (UniProt P07359); assay: platelet adhesion to vWF-A1 coated wells vs BSA, automated run of 30 plates, Acumen cytometry

Chain of vWF-A1 (von Willebrand factor A1 domain, Aa 475-706), His-tagged recombinant protein (ligand) (chain): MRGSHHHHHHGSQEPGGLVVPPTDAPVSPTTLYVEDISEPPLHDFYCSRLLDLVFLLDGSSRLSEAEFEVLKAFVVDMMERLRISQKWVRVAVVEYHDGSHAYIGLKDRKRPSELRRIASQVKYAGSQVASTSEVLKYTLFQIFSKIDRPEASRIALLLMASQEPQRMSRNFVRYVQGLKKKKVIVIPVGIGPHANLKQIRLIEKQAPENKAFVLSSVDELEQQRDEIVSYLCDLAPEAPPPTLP

Collagen I (rat tail, SIGMA C8897) (from UniProt P02454 152-1207; P02466 86-1125) (ligand)
S/B [1]: 20 fold

Mouse anti-human CD42b monoclonal antibody, clone AK2 (Chemicon international, catalog No. CBL166)
% inhibition of platelet adhesion [2]: 90%

vWF-A1 (von Willebrand factor A1 domain, Aa 475-706), His-tagged recombinant protein (ligand)
S/B (number platelets attached to vWF-A1 vs BSA) [3]: 70 fold | S/B [4]: 78 fold | S/B [5]: 20 fold
